B1: LINE1-full (parent)
chain: UACGUAGGUGGUUUUCCCCUGAUAGUGCUAAGGGGGCCUGGAAGUUUGGACUGGGCAGAGCUCAACACAGCGUGGCAAAGUGGCUGUGGCUAGACUGCCUCUCUGGAUUCCUCGUCACUCAGCAGGGCAUCUCUGAGAGAAAUGCC

Variants of: B1
Assay: self-cleavage, relative activity (ratio to wild type); higher = more cleavage; in vitro, sequencing; the parent is a self-cleaving ribozyme

Point of comparison: UACGUAGGUGGUUUUCCCCUGAUAGUGCUAAGGGGGCCUGGAAGUUUGGACAGGGCAGAGCUCAACACAGCGUGGCAAAGUGGUUGUGGCUAGACUGCCUCUCUGGAUUCCUCGUCACUCAGCAGGGCAUCUCUGAGAGAAAUGCC, self-cleavage 0.14. Against it:
- UACGUAGGUGGUUUUCCCCUGAUAGUGCUAAGGGGGCCUGGAAGUUUGGACAGGGCAGAGCUCAACACAGCGUGGCAAAGUGGCUGUGGCUAGACUGCCUCUCUGGAUUCCUCGUCACUCGGCAGGGCAUCUCUGAGAGAAAUGCC — higher, 1.74
- UACGUAGGUGGUUUUCCCCUGAUAGUGCUAAGGGGGCCUGGAAGUUUGGACAGGGCAGAGCUCAACACAGCGUGGCAAAGUGGCUGUGGCUAGACUGCCUCUCUGGAUUCCUCGUCACUCAGCAGGGCGUCUCUGAGAGAAAUGCC — higher, 1.3
- UACGUAGGUGGUUUUCCCCUGAUAGUGCUAAGGGGGCCUGGAAGUUUGGACAGGGCAGAGCUCAACACAGCGUGGCAAAGUGGCUGUGGCUAGACUGCCUCUCUGGAUUCCUCGUCACUCAGCAGGGCAUCUCUGAGGGAAAUGCC — higher, 1.57
- UACGUAGGUGGUUUUCCCCUGAUAGUGCUAAGGGGGCCUGGAAGUUUGGACAGGGCAGAGCUCAACACAGCGUGGCAAAGUGGCUGUGGCUAGACUGCCUCUCUGGAUUCCUCGUCACUCAGCAGGGCAUCUCUGAGAGGAAUGCC — higher, 1.08
- UACGUAGGUGGUUUUCCCCUGAUAGUGCUAAGGGGGCCUGGAAGUUUGGACAGGGCAGAGCUCAACACAGCGUGGCAAAGUGGCUGUGGCUAGACUGCCUCUCUGGAUUCCUCGUCACUCAGCAGGGCAUCUCUGAGAGACAUGCC — higher, 1.48
- UACGUAGGUGGUUUUCCCCUGAUAGUGCUAAGGGGGCCUGGAAGUUUGGACAGGGCAGAGCUCAACACAGCGUGGCAAAGUGGCUGUGGCUAGACUGCCUCUCUGGAUUCCUCGUCACUCAGCAGGGCAUCUCUGAGAGAUAUGCC — higher, 1.35
- UACGUAGGUGGUUUUCCCCUGAUAGUGCUAAGGGGGCCUGGAAGUUUGGACAGGGCAGAGCUCAACACAGCGUGGCAAAGUGGCUGUGGCUAGACUGCCUCUCUGGAUUCCUCGUCACUCAGCAGGGCAUCUCUGAGAGAAGUGCC — higher, 1.46
- UACGUAGGUGGUUUUCCCCUGAUAGUGCUAAGGGGGCCUGGAAGUUUGGACAGGGCAGAGCUCAACACAGCGUGGCAAAGUGGCUGUGGCUAGACUGCUUCUCUGGAUUCCUCGUCACUCAGCAGGGCAUCUCUGAGAGAAAUGCC — higher, 0.64
- UACGUAGGUGGUUUUCCCCUGAUAGUGCUAAGGGGGCCUGGAAGUUUGGACAGGGCAGAGCUCAACACAGCGUGGCAAAGUGGCUGUGGCUAGACUGCCUCUCUGGAUUCAUCGUCACUCAGCAGGGCAUCUCUGAGAGAAAUGCC — higher, 1.25
- UACGUAGGUGGUUUUCCCCUGAUAGUGCUAAGGGGGCCUGGAAGUUUGGACAGGGCAGAGCUCAACACAGCGUGGCAAAGUGGCUGUGGCUAGACUGCCUCUCUGGAUUCCUAGUCACUCAGCAGGGCAUCUCUGAGAGAAAUGCC — higher, 1.24
- UACGUAGGUGGUUUUCCCCUGAUAGUGCUAAGGGGGCCUGGAAGUUUGGACAGGGCAGAGCUCAACACAGCGUGGCAAAGUGGCUGUGGCUAGACUGCCUCUCUGGAUUCCUCGUCACUCAGUAGGGCAUCUCUGAGAGAAAUGCC — higher, 1.11
- UACGUAGGUGGUUUUCCCCUGAUAGUGCUAAGGGGGCCUGGAAGUUUGGACAGGGCAGAGCUCAACACAGCGUGGCAAAGUGGCUGUGGCUAGACUGCCUCUCUGGAUUCCUCGUCACUCAGCAGGGCAUUUCUGAGAGAAAUGCC — higher, 1.46
- UACGUAGGUGGUUUUCCCCUGAUAGUGCUAAGGGGGCCUGGAAGUUUGGACAGUGCAGAGCUCAACACAGCGUGGCAAAGUGGCUGUGGCUAGACUGCCUCUCUGGAUUCCUCGUCACUCAGCAGGGCAUCUCUGAGAGAAAUGCC — higher, 1.84
- UACGUAGGUGGUUUUCCCCUGAUAGUGCUAAGGGGGCCUGGAAGUUUGGACAGGGCAAAGCUCAACACAGCGUGGCAAAGUGGCUGUGGCUAGACUGCCUCUCUGGAUUCCUCGUCACUCAGCAGGGCAUCUCUGAGAGAAAUGCC — lower, 0
- UACGUAGGUGGUUUUCCCCUGAUAGUGCUAAGGGGGCCUGGAAGUUUGGACAGGGCAGAGCUCAACACAGCGUGGCAAAGUGGCUGUGGCUAGACUGCCUCUCUGGAUUCCUCGUCACUCAGCAGGACAUCUCUGAGAGAAAUGCC — higher, 1.63
- UACGUAGGUGGUUUUCCCCUGAUAGUGCUAAGGGGGCCUGGAAGUUUGGACAGGGCAGAGCUCAACACAGCGUGGCAAAGUGGCUGUGGCUAGACUGCCUCUCUGGAUUCCUCGUCACUCAGCAGGGCAUCUCUCAGAGAAAUGCC — higher, 1.82
- UACGUAGGUGGUUUUCCCCUGAUAGUGCUAAGGGGGCCUGGAAGUUUGGACAGGGCAGAGCUCAACACAGCGUGGCAAAGUGGCUGUGGCUAGACUGCCUCUCUGGAUUCCUCGUCACUCAGCAGGGCAUCUCUGAAAGAAAUGCC — higher, 0.99
- UACGUAGGUGGUUUUCCCCUGAUAGUGCUAAGGGGGCCUGGAAGUUUGGACAGGGCAGAGCUCAACACAGCGUGGCAAAGUGGCUGUGGCUAGACUGCCUCUCUGGAUUCCUCGUCACUCAGCAGGGCAUCUCUGAUAGAAAUGCC — higher, 1.06

Source: the RNAGym collection of RNA variant scans (doi:10.7554/elife.90254)
